{"source": "the RNAGym collection of RNA variant scans (doi:10.7554/elife.90254)", "parents": {"B1": {"name": "LINE1-mini (parent)", "chain": "GGCAGAGCUCAACACAGCGUGGCAAAGUGGCUGUGGCUAGACUGCC"}}}
{"variants_of": "B1", "assay": "self-cleavage, relative activity (ratio to wild type); higher = more cleavage; in vitro, sequencing; the parent is a self-cleaving ribozyme"}
{"variant": "U32C G36C", "self-cleavage": 0.04}
{"variant": "U32C G36A", "self-cleavage": 0.08}
{"variant": "U32C G36U", "self-cleavage": 0.06}
{"variant": "U32A U43G", "self-cleavage": 0.11}
{"variant": "U32A U43C", "self-cleavage": 0.04}
{"variant": "U32A U43A", "self-cleavage": 0.08}
{"variant": "U34A G40A", "self-cleavage": 0.09}
{"variant": "U34A G40C", "self-cleavage": 0.04}
{"variant": "U34A G40U", "self-cleavage": 0.06}
{"variant": "U32C G33U", "self-cleavage": 0.13}
{"variant": "U32C G33A", "self-cleavage": 0.05}
{"variant": "U32C G33C", "self-cleavage": 0.04}
{"variant": "G33C C42A", "self-cleavage": 0.06}
{"variant": "G33C C42U", "self-cleavage": 0.06}
{"variant": "G33C C42G", "self-cleavage": 0.05}
{"variant": "U32G U43C", "self-cleavage": 0.07}
{"variant": "U32G U43G", "self-cleavage": 0.04}
{"variant": "U32G U43A", "self-cleavage": 0.04}
{"variant": "G33A G44A", "self-cleavage": 0.1}
{"variant": "G33A G44U", "self-cleavage": 0.03}
{"variant": "G33A G44C", "self-cleavage": 0.07}
{"variant": "U34C G35C", "self-cleavage": 0.06}
{"variant": "U34C G35U", "self-cleavage": 0.18}
{"variant": "U34C G35A", "self-cleavage": 0.05}
{"variant": "U34C G40U", "self-cleavage": 0.1}
{"variant": "U34C G40A", "self-cleavage": 0.11}
{"variant": "U34C G40C", "self-cleavage": 0.02}
{"variant": "G33A G35A", "self-cleavage": 0.07}
{"variant": "G33A G35C", "self-cleavage": 0.05}
{"variant": "G33A G35U", "self-cleavage": 0.1}
{"variant": "U32A G44A", "self-cleavage": 0.23}
{"variant": "U32A G44C", "self-cleavage": 0.07}
{"variant": "U32A G44U", "self-cleavage": 0.06}
{"variant": "U34C A39G", "self-cleavage": 0.04}
{"variant": "U34C A39C", "self-cleavage": 0.09}
{"variant": "U34C A39U", "self-cleavage": 0.07}
{"variant": "U34C G44A", "self-cleavage": 0.12}
{"variant": "U34C G44U", "self-cleavage": 0.09}
{"variant": "U34C G44C", "self-cleavage": 0.11}
{"variant": "G33U G40A", "self-cleavage": 0.03}
{"variant": "G33U G40U", "self-cleavage": 0.14}
{"variant": "G33U G40C", "self-cleavage": 0.05}
{"variant": "U32A C42G", "self-cleavage": 0.06}
{"variant": "U32A C42A", "self-cleavage": 0.05}
{"variant": "U32A C42U", "self-cleavage": 0.05}
{"variant": "G33A G40U", "self-cleavage": 0.09}
{"variant": "G33A G40A", "self-cleavage": 0.07}
{"variant": "G33A G40C", "self-cleavage": 0.09}
{"variant": "U32G G40C", "self-cleavage": 0.07}
{"variant": "U32G G40U", "self-cleavage": 0.11}
{"variant": "U32G G40A", "self-cleavage": 0.05}
{"variant": "C31U U43A", "self-cleavage": 0.06}
{"variant": "C31U U43G", "self-cleavage": 0.02}
{"variant": "C31U U43C", "self-cleavage": 0.06}
{"variant": "G33C C45U", "self-cleavage": 0.05}
{"variant": "G33C C45A", "self-cleavage": 0.04}
{"variant": "G33C C45G", "self-cleavage": 0.06}
{"variant": "U32C C37U", "self-cleavage": 0.07}
{"variant": "U32C C37A", "self-cleavage": 0.15}
{"variant": "U32C C37G", "self-cleavage": 0.06}
{"variant": "U32G U34C", "self-cleavage": 0.06}
{"variant": "U32G U34A", "self-cleavage": 0.04}
{"variant": "U32G U34G", "self-cleavage": 0.03}
{"variant": "G33A", "self-cleavage": 0.11}
{"variant": "G33U", "self-cleavage": 0.11}
{"variant": "G33C", "self-cleavage": 0.07}
{"variant": "U32C U38A", "self-cleavage": 0.37}
{"variant": "U32C U38C", "self-cleavage": 0.06}
{"variant": "U32C U38G", "self-cleavage": 0.01}
{"variant": "U32G C42U", "self-cleavage": 0.11}
{"variant": "U32G C42A", "self-cleavage": 0.04}
{"variant": "U32G C42G", "self-cleavage": 0.14}
{"variant": "U32A G40C", "self-cleavage": 0.08}
{"variant": "U32A G40U", "self-cleavage": 0.16}
{"variant": "U32A G40A", "self-cleavage": 0.06}
{"variant": "G33A A41C", "self-cleavage": 0.07}
{"variant": "G33A A41G", "self-cleavage": 0.11}
{"variant": "G33A A41U", "self-cleavage": 0.11}
{"variant": "U32G C45U", "self-cleavage": 0.12}
{"variant": "U32G C45G", "self-cleavage": 0.11}
{"variant": "U32G C45A", "self-cleavage": 0.1}
{"variant": "U32G G35C", "self-cleavage": 0.1}
{"variant": "U32G G35U", "self-cleavage": 0.06}
{"variant": "U32G G35A", "self-cleavage": 0.09}
{"variant": "G33U G36C", "self-cleavage": 0.05}
{"variant": "G33U G36U", "self-cleavage": 0.05}
{"variant": "G33U G36A", "self-cleavage": 0.08}
{"variant": "C31U U32G", "self-cleavage": 0.06}
{"variant": "C31U U32A", "self-cleavage": 0.09}
{"variant": "C31U U32C", "self-cleavage": 0.08}
{"variant": "U32C C45A", "self-cleavage": 0.2}
{"variant": "U32C C45G", "self-cleavage": 0.03}
{"variant": "U32C C45U", "self-cleavage": 0.12}
{"variant": "U34A G36U", "self-cleavage": 0.04}
{"variant": "U34A G36A", "self-cleavage": 0.09}
{"variant": "U34A G36C", "self-cleavage": 0.03}
{"variant": "G33A C45A", "self-cleavage": 0.1}
{"variant": "G33A C45U", "self-cleavage": 0.1}
{"variant": "G33A C45G", "self-cleavage": 0.07}
{"variant": "G33A G36C", "self-cleavage": 0.05}
{"variant": "G33A G36A", "self-cleavage": 0.12}
{"variant": "G33A G36U", "self-cleavage": 0.09}
{"variant": "G33U C42A", "self-cleavage": 0.13}
{"variant": "G33U C42G", "self-cleavage": 0.07}
{"variant": "G33U C42U", "self-cleavage": 0.09}
{"variant": "G33U G35A", "self-cleavage": 0.08}
{"variant": "G33U G35U", "self-cleavage": 0.11}
{"variant": "G33U G35C", "self-cleavage": 0.06}
{"variant": "U32G", "self-cleavage": 0.19}
{"variant": "U32A", "self-cleavage": 0.1}
{"variant": "U32C", "self-cleavage": 0.2}
{"variant": "U34C A41U", "self-cleavage": 0.06}
{"variant": "U34C A41G", "self-cleavage": 0.07}
{"variant": "U34C A41C", "self-cleavage": 0.05}
{"variant": "U32G C37U", "self-cleavage": 0.07}
{"variant": "U32G C37G", "self-cleavage": 0.04}
{"variant": "U32G C37A", "self-cleavage": 0.09}
{"variant": "U32A G35A", "self-cleavage": 0.04}
{"variant": "U32A G35U", "self-cleavage": 0.05}
{"variant": "U32A G35C", "self-cleavage": 0.08}
{"variant": "G33U C45G", "self-cleavage": 0.07}
{"variant": "G33U C45U", "self-cleavage": 0.08}
{"variant": "G33U C45A", "self-cleavage": 0.05}
{"variant": "G33A U38C", "self-cleavage": 0.17}
{"variant": "G33A U38G", "self-cleavage": 0.03}
{"variant": "G33A U38A", "self-cleavage": 0.13}
{"variant": "U34C C42G", "self-cleavage": 0.05}
{"variant": "U34C C42U", "self-cleavage": 0.12}
{"variant": "U34C C42A", "self-cleavage": 0.09}
{"variant": "U32C C46U", "self-cleavage": 0.2}
{"variant": "U32C C46G", "self-cleavage": 0.1}
{"variant": "U32C C46A", "self-cleavage": 0.16}
{"variant": "U34C U38A", "self-cleavage": 0.11}
{"variant": "G33C G44U", "self-cleavage": 0.04}
{"variant": "G33C G44A", "self-cleavage": 0.03}
{"variant": "G33C G44C", "self-cleavage": 0.04}
{"variant": "U32G G36U", "self-cleavage": 0.1}
{"variant": "U32G G36C", "self-cleavage": 0.05}
{"variant": "U32G G36A", "self-cleavage": 0.09}
{"variant": "U32A U38G", "self-cleavage": 0.02}
{"variant": "U32A U38C", "self-cleavage": 0.07}
{"variant": "U32A U38A", "self-cleavage": 0.09}
{"variant": "U32A A41G", "self-cleavage": 0.04}
{"variant": "U32A A41U", "self-cleavage": 0.13}
{"variant": "U32A A41C", "self-cleavage": 0.07}
{"variant": "U34C C37G", "self-cleavage": 0.04}
{"variant": "U34C C37U", "self-cleavage": 0.05}
{"variant": "U34C C37A", "self-cleavage": 0.09}
{"variant": "U32A G33C", "self-cleavage": 0.08}
{"variant": "U32A G33A", "self-cleavage": 0.08}
{"variant": "U32A G33U", "self-cleavage": 0.07}
{"variant": "U32C A39C", "self-cleavage": 0.08}
{"variant": "U32C A39G", "self-cleavage": 0.07}
{"variant": "U32C A39U", "self-cleavage": 0.15}
{"variant": "U34A C42A", "self-cleavage": 0.05}
{"variant": "U34A C42G", "self-cleavage": 0.04}
{"variant": "U34A C42U", "self-cleavage": 0.05}
{"variant": "U34A U38C", "self-cleavage": 0.2}
{"variant": "U34A U38A", "self-cleavage": 0.17}
{"variant": "U34A U38G", "self-cleavage": 0.06}
{"variant": "U32G U38G", "self-cleavage": 0.03}
{"variant": "U32G U38C", "self-cleavage": 0.12}
{"variant": "U32G U38A", "self-cleavage": 0.07}
{"variant": "G33A U34A", "self-cleavage": 0.09}
{"variant": "G33A U34G", "self-cleavage": 0.04}
{"variant": "G33A U34C", "self-cleavage": 0.09}
{"variant": "U34C C45A", "self-cleavage": 0.05}
